The source of these data is publication PMC2191679.

The target of this assay is H-2Kb on the surface of RMA-S cells (mouse (endogenous in RMA-S)). As to the kind of experiment: stabilisation of Kb on RMA-S cells.

For SIVNFEKL [OVA257-264/P3I->V], the relative efficiency of peptide-binding to Kb (parent OVA257-264 = 1) was determined as 1.

For SVVRFDKL [OVA55-62/P1K->S], the relative efficiency of peptide-binding to Kb (parent OVA55-62 = 1) amounted to 2.

On to KVIRFDKL [OVA55-62/P3V->I], for which the relative efficiency of peptide-binding to Kb (parent OVA55-62 = 1) worked out at 1.

For the molecule SIIRFEKL [OVA257-264/P4N->R], the relative efficiency of peptide-binding to Kb (parent OVA257-264 = 1) was 1.

Consider KVVNFDKL [OVA55-62/P4R->N], for which the relative efficiency of peptide-binding to Kb (parent OVA55-62 = 1) was found to be 2.

KVVRFEKL [OVA55-62/P6D->E]: the relative efficiency of peptide-binding to Kb (parent OVA55-62 = 1) stood at 10.

With KIINFEKL [OVA257-264/P1S->K], the relative efficiency of peptide-binding to Kb (parent OVA257-264 = 1) is 1.
